Experimental data as given in US20160264960A1 (Chugai, published 2016).
Residue numbers refer to the chain shown, from its start.

T1: human plexin A1 protein sema domain (from glutamic acid at position 28 to serine at position 514) tagged at … (human, UniProt Q9UIW2 28-514)
T1 construct: also called human plexin A1 sema domain
T1 sequence: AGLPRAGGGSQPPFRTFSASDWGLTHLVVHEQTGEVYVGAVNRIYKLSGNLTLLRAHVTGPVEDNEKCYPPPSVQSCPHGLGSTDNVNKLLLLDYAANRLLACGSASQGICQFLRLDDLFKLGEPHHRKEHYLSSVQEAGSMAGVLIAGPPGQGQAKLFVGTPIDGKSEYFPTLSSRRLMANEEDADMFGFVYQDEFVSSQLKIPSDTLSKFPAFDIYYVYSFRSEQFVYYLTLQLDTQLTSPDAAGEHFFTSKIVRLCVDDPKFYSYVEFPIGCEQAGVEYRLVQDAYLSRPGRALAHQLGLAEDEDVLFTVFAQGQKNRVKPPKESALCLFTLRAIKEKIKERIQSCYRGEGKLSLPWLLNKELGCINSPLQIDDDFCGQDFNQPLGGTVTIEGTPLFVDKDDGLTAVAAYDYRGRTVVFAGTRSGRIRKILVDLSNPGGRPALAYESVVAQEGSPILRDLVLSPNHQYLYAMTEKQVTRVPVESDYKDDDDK

T2: soluble human IL-6R (human, UniProt P08887 20-357)
T2 construct: Analyte in the Octet experiments; also called hIL-6R; soluble hIL-6R
T2 sequence: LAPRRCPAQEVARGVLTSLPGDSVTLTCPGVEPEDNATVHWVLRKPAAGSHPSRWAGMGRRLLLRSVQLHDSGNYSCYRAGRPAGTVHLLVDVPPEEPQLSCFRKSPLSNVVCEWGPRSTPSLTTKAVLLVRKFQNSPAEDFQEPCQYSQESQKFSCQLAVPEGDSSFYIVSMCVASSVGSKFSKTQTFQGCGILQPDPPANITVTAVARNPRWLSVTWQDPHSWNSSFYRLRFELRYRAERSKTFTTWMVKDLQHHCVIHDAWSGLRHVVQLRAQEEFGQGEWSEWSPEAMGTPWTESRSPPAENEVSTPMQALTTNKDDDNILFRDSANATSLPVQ

T3: biotinylated human IL-6R (shIL6R-Avitag) (human, UniProt P08887 20-357, biotinylated at the C-terminal AviTag sequence by biotin ligase (BirA))
T3 construct: It was captured on a StreptaWell plate in the phage ELISA; its preparation is described in (3-3); also called biotinylated hIL-6R
T3 sequence: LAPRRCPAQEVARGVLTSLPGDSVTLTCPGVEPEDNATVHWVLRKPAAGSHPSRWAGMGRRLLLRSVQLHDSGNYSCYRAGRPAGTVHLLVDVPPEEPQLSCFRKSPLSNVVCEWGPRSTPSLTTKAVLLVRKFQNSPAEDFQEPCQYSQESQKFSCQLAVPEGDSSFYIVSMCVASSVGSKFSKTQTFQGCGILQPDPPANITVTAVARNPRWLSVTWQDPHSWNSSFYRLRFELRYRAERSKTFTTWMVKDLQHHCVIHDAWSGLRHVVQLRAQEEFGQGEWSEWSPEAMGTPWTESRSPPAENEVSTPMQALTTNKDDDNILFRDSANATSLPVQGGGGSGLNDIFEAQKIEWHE

B1: hPANLB2-3_359 (antibody, human IgG1, lambda, V domains shown)
VH: QVQLVQSGAEVKKPGASVKVSCKASGYTFTSYYMHWVRQAPGQGLEWMGIINPSGGSTSYAQKFQGRVTMTRDTSTSTVYMELSSLRSEDTAVYYCARAPGHYYYGMDVWGQGTTVTVSS
VL: SYELTQPPSVSVSPGQTASITCSGDKVGEKYASWYQQRPGQSPVLVIYQDTKRPSGIPERFSGSNSGNTATLTISGTQAIDDADYYCQAWDNSAYVIFGGGTKLTVLG
notes: Parent anti-plexin A1 antibody, IgG
B2: PLR2H359#062 (antibody, human IgG1, lambda, V domains shown)
VH: B1 VH
VL: SYELTQPPSLSVSPGQTASITCSGDKLGEKYACWYQQKPGQSPALVIYQDTKRPSGIPERFSGSNSGNTATLTISGTQAMDEADYSCQAWDTNTGEVVFGGGTKLTVLG
notes: IgG from the 359H-NL library
B3: hPANLB2-3_264 (antibody, human IgG1, lambda, V domains shown)
VH: QVQLQQSGPGLVKPSQTLSLTCAISGDSVSSNSAAWNWIRQSPSRGLEWLGRTYYRSKWYNDYAVSVKSRITINPDTSKNQFSLQLNSVTPEDTAVYYCARDRGYSYGFDYWGQGTLVTVSS
VL: SYLLTQPPSVSVSPGQTASITCSGDKLGQKFVSWYQQRPGQSPVLVIYQDTKRPSGIPERFSGSNSGNTATLTISGTQAMDEADYYCQAWDSSTAGVFGGGTNLTVLG
notes: as for B1
B4: PLR4H264#061 (antibody, human IgG1, lambda, V domains shown)
VH: B3 VH
VL: SYELTQPPSVAVSPGQTASITCSGHKLGEKYASWYQQKPGQSPVLVIYQDTKRPSGIPERFSGSNSGNTATLTISGTQAMDEADYYCQAWDSSSVCVFGTGTKVTVLG
notes: IgG from the 264H-NL library
B5: PLR3H264#022 (antibody, human IgG1, lambda, V domains shown)
VH: B3 VH
VL: SYVLTQPRSVSVSPGQTTRITCSGQNLGEKYISWYRQKPGQSPEVLIYEDKRRPSGIPERISGANSGGTATLTISGTQAMDEADYFCQAWVSSTEGVFGGGTRLTVLR
notes: IgG from the 264H-NL library
B6: PLR2H264#002 (antibody, human IgG1, lambda, V domains shown)
VH: B3 VH
VL: B3 VL with L3E, Q29N, F31Y, Q37R, T51S, A79S, D91Y, T94S, A95V, N103R
notes: IgG from the 264H-NL library
B7: hPANLB2-3_342 (antibody, human IgG1, lambda, V domains shown)
VH: EVQLVQSGAEVKKPGASVKVSCKASGYTFTSYGISWVRQAPGQGLEWMGWISAYNGNTNYAQKLQGRVTMTTDTSTSTAYMELRSLRSDDTAVYYCARHAGYYYGMDVWGKGTMVTVSS
VL: B4 VL with A11S, H25D, T51S, T69M, M80V, A89T, S93N, S94T, V95A, C96F
notes: as for B1
B8: PLR2H359#087 (antibody, human IgG1, lambda, V domains shown)
VH: B1 VH
VL: SSELTQPPSMSVSPGQTASISCSGDRLGEKYASWYQQKPGQSPVLVIYQDNKRPSGIPERFSGSNSGNTATLTISGTQAIDEADYYCQAWDSNSAYVFGTGTKVTVLG
notes: IgG from the 359H-NL library
B9: 6RNH-2_02 (antibody, human IgG1, kappa, V domains shown)
VH: QVQLVETGGGMVQPGGSLRLSCAASGFMFSTYAMSWVRQASGKGLEWVSLISGTGSVTKYADSVKGRFTISRDNSKNMVYLQMNNLGADDTAVYYCANSDYGDYARFDHWGQGTLVTVSS
VL: DIQMTQSPSSLSASVGDSVTITCQASQDISSYLNWYQQKPGKAPELLIYYGSELHSGVPSRFSGSGSGTDFTFTISSLEAEDAATYYCGQGNRLPYTFGQGTKVEIER
notes: IgG with the PF1 L chain, purified on Protein A
B10: phage produced by the H chain (PF1H)-expressing phagemid vector and the negative control helper phage M13KO7TC (other)
heavy: QVQLQESGPGLVKPSETLSLTCAVSGYSISDDHAWSWVRQPPGEGLEWIGYISYSGITNYNPSLKGRVTISRDTSKNQFSLKLSSVTAADTAAYYCARVLARITAMDYWGEGTLVTVSSASTKGPSVFPLAPSSKSTSGGTAALGCLVKDYFPEPVTVSWNSGALTSGVHTFPAVLQSSGLYSLSSVVTVPSSSLGTQTYICNVNHKPSNTKVDKK
notes: Control phage without an L chain; not shown: linker peptide and gene 3 protein (g3p)
B11: PF1 Fab displayed on phage (PF1 H chain Fd-g3p fusion with PF1 L chain) (Fab, V domains shown)
VH: QVQLQESGPGLVKPSETLSLTCAVSGYSISDDHAWSWVRQPPGEGLEWIGYISYSGITNYNPSLKGRVTISRDTSKNQFSLKLSSVTAADTAAYYCARVLARITAMDYWGEGTLVTVSS
VL: B9 VL
notes: also called Fab-displaying phage; phage produced with M13KO7TC-PF1L; not shown: linker peptide and gene 3 protein (g3p) fused to the C terminus of the Fd

Molecular target: T1, human plexin A1 protein sema domain …
Test: SPR, Biacore T200; antibody held by Protein A/G on CM4 chip, sema domain as analyte
Method: (§1) Each antibody obtained in the paragraph (10-1) was evaluated for its binding activity against the antigen by surface plasmon resonance (SPR) analysis.
(§2) In the SPR analysis, the antibody was analyzed using Biacore T200 (GE Healthcare Japan Corp.). The anti-human plexin A1 antibody was immobilized onto the surface of Sensor Chip CM4 using Recombinant Protein A/G (Thermo Fisher Scientific Inc.) and Amine Coupling Kit (GE Healthcare Japan Corp.). The antigen used was a human plexin A1 protein sema domain (from glutamic acid at position 28 to serine at position 514) tagged at the C terminus of the protein with FLAG tag. The antigen was prepared as follows: an expression vector carrying a cDNA corresponding to the human plexin A1 sema domain was transferred to FreeStyle 293 cells. After culture, the obtained culture solution was passed through an anti-FLAG-M2 antibody-immobilized affinity column. A fraction eluted with the FALG peptide was purified by gel filtration. The obtained antigen was serially diluted with 20 mM ACES, 150 mM NaCl, 0.05% polysorbate 20, and 1.2 mM CaCl₂ (pH 7.4) and added to the sensor chip at a flow rate of 30 μL/min. In this assay system, the dissociation constant (KD) between the human plexin A1 protein and the anti-human plexin A1 antibody was calculated using data analysis software (BIA T200 Evaluation software ver. 2).

Row | Binder | Kd
1 | B1 | 13.5 nM
2 | B2 | 3.93 nM
3 | B3 | 173 nM
4 | B4 | 41 nM
5 | B5 | 56.9 nM
6 | B6 | 138 nM
7 | B7 | 34.5 nM
8 | B8 | 4.62 nM

Molecular target: T1, human plexin A1 protein sema domain …
Test: SPR, Biacore T200; KD against parent antibody hPANLB2-3_264
Method: as §1, §2

Row | Binder | Relative KD improvement
9 | B4 | 4.2 fold
10 | B5 | 3 fold
11 | B6 | 1.3 fold

Molecular target: T2, soluble human IL-6R
Test: biolayer interferometry (Octet RED384), antibody on Protein G biosensor, soluble human IL-6R in solution, 120 s association and 120 s dissociation [a]
Method: Each antibody (6RNH-2_02, 6RNH-2_37, 6RNH-3(2)_32, and 6RNH-2_42) obtained in the paragraph (4-1) was evaluated for its binding activity against soluble human IL-6R using Octet RED384 (forteBIO). The binding evaluation was conducted using HBS-EP+ Buffer (GE Healthcare Japan Corp.) as a buffer.
After binding of the antibody to Protein G Biosensors (forteBIO), soluble human IL-6R was allowed to interact with the antibody on the biosensor through contact therebetween for 120 seconds, and subsequently contacted with the buffer for 120 seconds to measure the antibody-antigen interaction. Then, the biosensor was regenerated through contact with 10 mmol/L glycine-HCl (pH 1.5). The measurement was conducted at 30° C.

Row | Binder | binding result
12 | B9 | binds

Molecular target: T3, biotinylated human IL-6R (shIL6R-Avitag)
Test: phage ELISA, plate coated with biotinylated human IL-6R, detection with HRP anti-M13 antibody, absorbance at 450 nm
Method: The phage ELISA method was carried out to confirm Fab display on the produced phage and to confirm the ability to bind to the antigen. StreptaWell 96-well microtiter plate (F. Hoffmann-La Roche, Ltd.) was coated by the addition of 100 μL of PBS containing Goat anti-Human Kappa Biotin antibody (EY Laboratories, Inc.) or biotinylated human IL-6R. Each well of the plate was washed with 0.1×TBST (0.1×TBS containing 0.1% Tween 20) to remove the antigen. Then, the plate was blocked for 1 hour or longer by the addition of 250 μL of 0.02% skim milk-0.1×TBS (0.1×TBS containing 0.02% skim milk) to the well. […] After washing with 0.1×TBST, an HRP-conjugated anti-M13 antibody (Amersham Pharmacia Biotech) diluted with 0.1×TBST was added to each well, and the plate was incubated for 1 hour. After washing with 0.1×TBST, TMB single solution (Zymed Laboratories Inc.) was added to each well. The color reaction of the solution was further terminated by the addition of sulfuric acid. Then, the absorbance was measured at 450 nm.

Row | Binder | binding result
13 | B10 | no binding
14 | B11 | binds

Molecular target: T1, human plexin A1 protein sema domain …
Test: SPR, Biacore T200; the parent antibody itself (control)
Method: as §1, §2

Row | Binder | Relative KD improvement
15 | B1 | 1 fold
16 | B3 | 1 fold
17 | B7 | 1 fold

Molecular target: T1, human plexin A1 protein sema domain …
Test: SPR, Biacore T200; KD against parent antibody hPANLB2-3_359
Method: as §1, §2

Row | Binder | Relative KD improvement
18 | B2 | 3.4 fold
19 | B8 | 2.9 fold
